The labels stand for the following.
B1: PRT-489 (protein)
chain: MVTSVWTKGVTPPANFTQGEDVFHAPYVANQGWYDITKTFNGKDNLLCGAATAGNMLHWWFDQNKDQIERYLKEHPEKQKIIFNNQELFDLKAAIDTKDSQTDSKLFEYFKEKAFPYLSTKHLGVFPDHVLDMFINGYRLSLTNHGPTPVKEGSKDKRGGIFDAVFTRGVQSKLLTSRHDLKNKTLKEISDLIKQELTEGKALGLSHTYANVRINHVINLWGADFDSEGNLKAIYVTDSDTNASIGMKKYFVGVNSAGKVAISAKEIKEDNIGAQVLGLFTLSTGQDIWNQTNLEHHHHHH
B2: PRT-447 (protein)
chain: MVTSVWTKGVTPPTDFIKGEDVFHAPYKAGQGWYDITKAFDGGDDLLCGAATAGNMLHWWFDQNKDQIEAYLKEHPEKQKINFNGEQMFDVKEAIDTKDDQTNSELFNYFKEKAFPYLSTKHLGVFPDHVLDMFINGYRLSLTNHGPTPVKEGSKDPRGGIFDAVFTRGDQSKLLTSRHDFKEKTLKEISDLIKQELTEGKALALSHTYANVRINHVINLWGADFDSNGNLEAIYVTDSDSNASIGMKKYFVGVNSAGKVAISAKEIEDDNIGAQVLGLFTLSTGQDIWNQTNLEHHHHHH
B3: PRT-459 (protein)
chain: MVTSVWTKGVTPPTDFIKGEDVFHAPYKAGQGWYDITKAFDGGDDLLCGAATAGNMLHWWFDQNKDQIERYLKEHPEKQKINFNGEQMFDVKEAIDTKDSQTNSELFNYFKEKAFPYLSTKHLGVFPDHVLDMFINGYRLSLTNHGPTPVKEGSKDPRGGIFDAVFTRGDQSKLLTSRHDFKEKTLKEISDLIKQELTEGKALGLSHTYANVRINHVINLWGADFDSEGNLKAIYVTDSDSNASIGMKKYFVGVNSAGKVAISAKEIKEDNIGAQVLGLFTLSTGQDIWNQTNLEHHHHHH
B4: PRT-462 (protein)
chain: MVTSVWTKGVTPPTDFRKIVDGNIAYYHAPYKAGQGWYDITKAFDGGDDLLCGAATAGNMLHWWFDQNKDQIERYLKEHPEKQKINFNGEQMFDVKEAIDTKDSQTNSELFNYFKEKAFPYLSTKHLGVFPDHVLDMFINGYRLSLTNHGPTPVKEGSKDPRGGIFDAVFTRGDQSKLLTSRHDLKNKTLKEISDLIKQELTEGKALGLSHTYANVRINHVINLWGADFDSEGNLKAIYVTDSDSNASIGMKKYFVGVNSAGKVAISAKEIKEDNIGAQVLGLFTLSTGQDIWNQTNLEHHHHHH
B5: PRT-473 (protein)
chain: MVTSVWTKGVTPPTDFRKIVDGNIAYYHAPYKAGQGWYDITKTFNGKDDLLCGAATAGNMLHWWFDQNKEQIENYLKKHPEKQKINFNGEQMFDVKEAIDTKDSQLDSKLFEYFKEKAFPYLSTKHLGVFPDHVIDMFINGYRLSLTNHGPTPVKRGSKDPRGGIFDAVFTRGDQSKLLTNRHDFKEKTLKEISDLIKQELTEGKALGISHTYANVRINHVINLWGADFDAEGNLEAIYVTDSDSNASIGMKKYFVGVNSNGKVAISAKEIEEDNIGAQVLGLFTLSTGQDIWNQTNLEHHHHHH
B6: PRT-520 (protein)
chain: MVTSVWTKGVTPPTDFRKIVDGNIAYYHAPYKAGQGWYDITKAFDGGDNLLCGAATAGNMLHWWFDQNKEYIEAYLKKHPEKQKIIFNNQELFDLKAAINTKGSQKNSELFNYFRDKAFPNLSARRLGVFPDLVLDMFINGYYLNVTKTQTTDVNRTYQEKDKRGGIFDAVFTRGVQSKLLTSRHDLKNKGLKEISDLIKQELTEGKALGLSHTYANVRINHVINLWGADFDSDGNLKAIYVTDSDTNASIGMKKYFVGVNSAGKVAISAKEIKEDNIGAQVLGLFTLSTGQDIWNQTNLEHHHHHH
B7: PRT-515 (protein)
chain: MITSVWTKGVTPPTDFIKGEDVFHAPYKAGQGWYDITKAFDGGDDLLCGAATAGNMLHWWFDQNKEEIEAYLKKHPEKQKIMFGDQELLDVRKVINTKDSQTNSALFNYFKDKAFPNLSARRLGVMPDLVLDMFINGYYLNVYKTQTTDVNRQEQTKDRRGGIFDAVFGRGDQTKLLTERHDLKNKTLNEISQLIKQELTEGKALGLSHTYANVRINHVINLWGADFDAEGNLEAIYVTDSDSNASIGMKKYFVGVNSAGKVAISAKEIKEDNIGAQVLGLFTLSTGQKIWNKTNLEHHHHHH
B8: PRT-510 (protein)
chain: MITSVWTKGVTPPTDFRKIVDGNIAYYHAPYKAGQGWYDITKAFDGGDDLLCGAATAGNMLHWWFDQNKEEIEAYLKKHPEKQKIMFGDQELLDVRKVINTKDSQTNSALFNYFKDKAFPNLSARRLGVMPDLVLDMFINGYYLNVYKTQTTDVNRTYQTKDRRGGIFDAVFTRGDQSKLLTERHDLKNKTLKEISDLIKQELTEGKALGLSHTYANVRINHVINLWGADFDSNGNLEAIYVTDSDSNASIGMKKYFVGVNSAGKVAISAKEIKEDNIGAQVLGLFTLSTGQDIWNQTNLEHHHHHH
B9: PRT-636 (protein)
chain: MQITSVWTKGVTPLTMDQFRNYNYDVIHAPYKPGQGWYDITKAFDGKDNLLCGAATAGNMLHWWFDQNKTEIEAYLSKHPEKQKIIFNNQELFDLKAAIDTKDSQTNSQLFNYFRDKAFPNLSARQLGVMPDLVLDMFINGYYLNVFKTQSTDVNRPYQDKDKRGGIFDAVFTRGDQTTLLTARHDLKNKGLNDISTIIKQELTEGKALALSHTYANVSISHVINLWGADFNAEGNLEAIYVTDSDANASIGMKKYFVGINAHGHVAISAKKIEGENIGAQVLGLFTLSSGKDIWQKLSLEHHHHHH
B10: PRT-521 (protein)
chain: MVTSVWTKGVTPPADFTQGEDVFHAPYVANQGWYDITKTFNGKDNLLCGAATAGNMLHWWFDQNKEYIEAYLKKHPEKQKIIFNNQELFDLKAAINTKGSQKNSELFNYFRDKAFPNLSARRLGVFPDLVLDMFINGYYLNVTKTQTTDVNRTYQEKDKRGGIFDAVFTRGVQSKLLTSRHDLKNKGLKEISDLIKQELTEGKALGLSHTYANVRINHVINLWGADFDSDGNLKAIYVTDSDTNASIGMKKYFVGVNSAGKVAISAKEIKEDNIGAQVLGLFTLSTGQDIWNQTNLEHHHHHH
B11: PRT-484 (protein)
chain: MVTSVWTKGVTPPTDFRKIVDGNIAYYHAPYKAGQGWYDITKAFDGGDNLLCGAATAGNMLHWWFDQNKDQIEAYLKEHPEKQKIIFNNQELFDLKAAIDTKDDQTNSELFNYFKEKAFPYLSTKHLGVFPDHVLDMFINGYRLSLTNHGPTPVKEGSKDKRGGIFDAVFTRGVQSKLLTSRHDLKNKTLKEISDLIKQELTEGKALALSHTYANVRINHVINLWGADFDSNGNLEAIYVTDSDTNASIGMKKYFVGVNSAGKVAISAKEIEDDNIGAQVLGLFTLSTGQDIWNQTNLEHHHHHH
B12: PRT-488 (protein)
chain: MVTSVWTKGVTPPTDFRKIVDGNIAYYHAPYKAGQGWYDITKAFDGGDNLLCGAATAGNMLHWWFDQNKDQIERYLKEHPEKQKIIFNNQELFDLKAAIDTKDSQTNSELFNYFKEKAFPYLSTKHLGVFPDHVLDMFINGYRLSLTNHGPTPVKEGSKDKRGGIFDAVFTRGVQSKLLTSRHDLKNKTLKEISDLIKQELTEGKALGLSHTYANVRINHVINLWGADFDSEGNLKAIYVTDSDTNASIGMKKYFVGVNSAGKVAISAKEIKEDNIGAQVLGLFTLSTGQDIWNQTNLEHHHHHH
B13: PRT-472 (protein)
chain: MVTSVWTKGVTPPTDFIYGEDVLHAPYKAGQGWYDITKTFNGKDDLLCGAATAGNMLHWWFDQNKEQIENYLKKHPEKQKINFNGEQMFDVKEAIDTKDSQLDSKLFEYFKEKAFPYLSTKHLGVFPDHVIDMFINGYRLSLTNHGPTPVKRGSKDPRGGIFDAVFTRGDQSKLLTNRHDLKNKTLKEISDLIKQELTEGKALGISHTYANVRINHVINLWGADFDAEGNLEAIYVTDSDSNASIGMKKYFVGVNSNGKVAISAKEIEEDNIGAQVLGLFTLSTGQDIWNQTNLEHHHHHH

Results on 13 proteins are retold here after patent US20250027068.

In this data set the target is pooled human IgG (human IgG1,2,3 and 4).
For B1, the Enzyme Activity Endpoint Assay (purified): Fab′2 stood at 0 ng/µL, the Enzyme Activity Endpoint Assay (purified): Fc worked out at 0 ng/µL, the Enzyme Activity Endpoint Assay (purified): IgG worked out at 0 ng/µL and the Enzyme Activity Endpoint Assay (purified): scIgG is 0 ng/µL.
As to B2, the Enzyme Activity Endpoint Assay (purified): Fab′2 was 376 ng/µL, the Enzyme Activity Endpoint Assay (purified): Fc stood at 255 ng/µL, the Enzyme Activity Endpoint Assay (purified): IgG turned out to be 445 ng/µL and the Enzyme Activity Endpoint Assay (purified): scIgG amounted to 0 ng/µL.
The like results for B3 were, in that order, 137 ng/µL, 193 ng/µL, 373 ng/µL and 415 ng/µL.
On to B4, for which the Enzyme Activity Endpoint Assay (purified): Fab′2 amounted to 0 ng/µL, the Enzyme Activity Endpoint Assay (purified): Fc worked out at 0 ng/µL, the Enzyme Activity Endpoint Assay (purified): IgG is 0 ng/µL and the Enzyme Activity Endpoint Assay (purified): scIgG was 0 ng/µL.
Protein B5 gave an Enzyme Activity Endpoint Assay (purified): Fab′2 of 1340 ng/µL, an Enzyme Activity Endpoint Assay (purified): Fc of 384 ng/µL, an Enzyme Activity Endpoint Assay (purified): IgG of 59 ng/µL and an Enzyme Activity Endpoint Assay (purified): scIgG of 0 ng/µL.
In turn, B6 registered an Enzyme Activity Endpoint Assay (purified): Fab′2 of 271 ng/µL, an Enzyme Activity Endpoint Assay (purified): Fc of 265 ng/µL, an Enzyme Activity Endpoint Assay (purified): IgG of 470 ng/µL and an Enzyme Activity Endpoint Assay (purified): scIgG of 475 ng/µL.
On to B7, for which the Enzyme Activity Endpoint Assay (purified): Fab′2 worked out at 0 ng/µL, the Enzyme Activity Endpoint Assay (purified): Fc is 0 ng/µL, the Enzyme Activity Endpoint Assay (purified): IgG worked out at 0 ng/µL and the Enzyme Activity Endpoint Assay (purified): scIgG was 0 ng/µL.
Take B8: the Enzyme Activity Endpoint Assay (purified): Fab′2 came to 51 ng/µL, the Enzyme Activity Endpoint Assay (purified): Fc worked out at 29 ng/µL, the Enzyme Activity Endpoint Assay (purified): IgG is 0 ng/µL and the Enzyme Activity Endpoint Assay (purified): scIgG turned out to be 0 ng/µL.
B9 came in with an Enzyme Activity Endpoint Assay (purified): Fab′2 of 12 ng/µL, an Enzyme Activity Endpoint Assay (purified): Fc of 17 ng/µL, an Enzyme Activity Endpoint Assay (purified): IgG of 0 ng/µL and an Enzyme Activity Endpoint Assay (purified): scIgG of 0 ng/µL.
B10 had an Enzyme Activity Endpoint Assay (purified): Fab′2 of 0 ng/µL, an Enzyme Activity Endpoint Assay (purified): Fc of 13 ng/µL, an Enzyme Activity Endpoint Assay (purified): IgG of 0 ng/µL and an Enzyme Activity Endpoint Assay (purified): scIgG of 0 ng/µL.
In turn, B11 registered an Enzyme Activity Endpoint Assay (purified): Fab′2 of 143 ng/µL, an Enzyme Activity Endpoint Assay (purified): Fc of 277 ng/µL, an Enzyme Activity Endpoint Assay (purified): IgG of 173 ng/µL and an Enzyme Activity Endpoint Assay (purified): scIgG of 973 ng/µL.
In turn, B12 displayed an Enzyme Activity Endpoint Assay (purified): Fab′2 of 134 ng/µL, an Enzyme Activity Endpoint Assay (purified): Fc of 246 ng/µL, an Enzyme Activity Endpoint Assay (purified): IgG of 216 ng/µL and an Enzyme Activity Endpoint Assay (purified): scIgG of 803 ng/µL.
The like results for B13 were, in that order, 1130 ng/µL, 386 ng/µL, 0 ng/µL and 0 ng/µL.
